Three molecules from PMC5814829 can be followed below.

Changes are numbered by the printed parent chain.

Common to all, as to experiment: fluorescence anisotropy
On the technique in general: Polarisation of emitted light reports the rotation of a fluorescent probe.

For one data set, the target named is T1, ScPif1p K363A (Saccharomyces cerevisiae, UniProt P07271 237-780, K363A).
T1 sequence: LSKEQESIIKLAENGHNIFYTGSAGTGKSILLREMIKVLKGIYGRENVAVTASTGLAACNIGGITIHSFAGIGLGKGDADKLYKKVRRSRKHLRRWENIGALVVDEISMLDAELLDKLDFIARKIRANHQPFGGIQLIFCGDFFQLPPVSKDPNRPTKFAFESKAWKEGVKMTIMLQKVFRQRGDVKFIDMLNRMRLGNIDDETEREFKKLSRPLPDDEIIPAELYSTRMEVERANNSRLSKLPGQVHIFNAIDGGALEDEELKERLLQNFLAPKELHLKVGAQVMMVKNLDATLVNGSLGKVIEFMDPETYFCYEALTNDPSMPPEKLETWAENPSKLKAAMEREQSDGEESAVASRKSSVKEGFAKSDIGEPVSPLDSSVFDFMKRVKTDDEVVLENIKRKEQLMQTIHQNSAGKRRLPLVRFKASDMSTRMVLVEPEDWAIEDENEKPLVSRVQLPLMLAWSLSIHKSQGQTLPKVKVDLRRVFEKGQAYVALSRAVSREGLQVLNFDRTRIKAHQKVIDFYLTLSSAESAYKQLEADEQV

For the next data set, the target named is T2, ScPif1p E681G (Saccharomyces cerevisiae, UniProt P07271 237-780, E681G).
T2 sequence: T1 sequence with A127K, E445G

The next data set has as its target T3, ScPif1p R326C (Saccharomyces cerevisiae, UniProt P07271 237-780, R326C).
T3 sequence: T1 sequence with R90C, A127K

The next data set has as its target T4, ScPif1p R323A (Saccharomyces cerevisiae, UniProt P07271 237-780, R323A).
T4 sequence: T1 sequence with R87A, A127K

What is called Kd is the equilibrium constant for the complex coming apart.

B1: dsDNA16bp (dsDNA)
DNA 1: CTCTGCTCGACGGATT
DNA 2: AATCCGTCGAGCAGAG
Consider B1, for which the Kd in the data set with ScPif1p K363A is 72.3 ± 8.3 nM; with ScPif1p E681G, 56.1 ± 11.6 nM; in the data set with ScPif1p R326C, 78.3 ± 9.6 nM; with ScPif1p R323A it was 100 ± 5.1 nM.

Regarding AGGGTGGGTGGGTGGGT (structured_DNA) [F-G417], the Kd with ScPif1p K363A amounted to 43.9 ± 2.2 nM; with ScPif1p E681G, 76.5 ± 10.5 nM; with ScPif1p R326C, 105 ± 8.4 nM; in the data set with ScPif1p R323A, 25.1 ± 1.4 nM.

For GTGTGTGTGGTG (ssDNA) [GR12], the Kd is 14.4 ± 1.3 nM with ScPif1p K363A, 12.4 ± 3.9 nM with ScPif1p E681G, 12.4 ± 2.1 nM in the data set with ScPif1p R326C and 9.9 ± 0.4 nM with ScPif1p R323A.
